Article PMC4747905

Columns and labels:
BRCA1 BRCT domains [1] = target: BRCA1 BRCT domains (UniProt P38398); experiment: size exclusion chromatography, 1 mg/ml; conditions: sites S406
BRCA1 BRCT domains [2] = target: BRCA1 BRCT domains (UniProt P38398); experiment: size exclusion chromatography, 1:1 versus 2:2 complex; conditions: reference: Ab1p (pS406 only); sites S404
BRCA1 BRCT domains [3] = target: BRCA1 BRCT domains (UniProt P38398); experiment: small angle X-ray scattering; conditions: reference: Ab1p (pS406 only); sites S404
BRCA1 BRCT domains [4] = target: BRCA1 BRCT domains (UniProt P38398); experiment: native mass spectrometry, 15 µM; conditions: reference: Ab1p (pS406 only); sites S404
BRCT-Ab2p complex = BRCT-Ab2p complex (UniProt P38398); experiment: native MS; peak fractions from gel filtration, 15 μM protein, 300 mM ammonium acetate pH 7.6, nano-electrospray

Abraxas 399-409 (from UniProt Q6UWZ7) Ab2p (pS404 pS406)
binding against the reference (BRCA1 BRCT domains [1]; reference: pS404-only peptide): gained | binding against the reference (BRCA1 BRCT domains [2]): stronger | binding against the reference (BRCA1 BRCT domains [3]): stronger | binding against the reference (BRCA1 BRCT domains [4]): stronger

Abraxas 399-409 (from UniProt Q6UWZ7) pS406 peptide (Ab1p)
binding against the reference (BRCA1 BRCT domains [1]; reference: unphosphorylated peptide): gained

BRCT-Ab2p complex (from UniProt P38398 1646-1859)
stoichiometry N (BRCT-Ab2p complex): 2
